The values below come from a protein production outcome set (Wang et al. 2014).

A short description of this data set: label from the status in PepcDB records.
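Also: failed if final PepcDB status was selected cloned or expressed and not failed if soluble or beyond.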

Regarding “MTETRIKQLLGQMSLEEKVSILSGEDFWSVAAVERLGIGKLRVSDGPNGARGGGSLVGGVKSASFPVGIAIGSTWNVELVREIGAALADEVKSKGAHMLLAPTVNIHRSVTNGRNFECYSEDPILSAELAVSYITGLQEQGIGATIKHFVGNESEIERTTISSEVDERALREIYLIPFEWAVRKAHTWGIMSSYNRLNGTFTSEHDWLLGHVLRDEWHYDGIVMSDWFGSHSTAETVNAGLDLEMPGPTRDRGQKLVDAVNAGEVSLETLDRRVLAMLRLMERVGSLDDHRPHVEKAEDRPEHRALIRRAGAEAAVLLKNDGVLPLEGSGKIAVIGPNAKTAQIMGGGSAQLNAHYRISPWQGLVAALGEERLTYAKGCTNDRFEPLLRGVLDVDYFDNLTLSGEPVHRGTIEDAQTFWIGQVAEGKVDALHFSARVRGRFTPEASGEHNVGIYAAGFAKVYIDGKLVADAWTNWTKGRTFFEEGCDEVVGTITLEAGHAYDVTIEFCTKDFATLGLAAFACGIGHPLGDDAIAAAVEAARTAETALLFIGRNGEWDTEGSDLPAIVLPGRQNELVEAVAAVNPRTVVVLQSGGPVEMPWAGQVAAVVSAWYPGQEAGNAIADVLTGLAEPGGRLPQTFPVRWADNPAHSQDREVYPGLEGKVRYEESIFVGYRHYDKLGLTPLYPFGFGLGYTSFALSDLSVDASNFETEGTVSVTLNVTNTGDRVGSTVVQLYVSDTLSSAPRPSKELKAFAKVKLEAGASRGVTLSLDARAFAFFDAGSKSWLVEPGDFILRVGQSSADLPLTARITRTGAMHLPL”, the protein production entry is recorded as “failed”.
Consider “MTEYNIALVGFGGVNRALAQLIAERNQAWKKQLGFSLKIVGISDLFLGSIVASQGLDAGLLSKLPATKGALAQLPGGQVEALNEQVIKDSGADIIAEATFTNPVDGEPASTFCRWALEQGKHVVTTNKGPIALHSAELKALAQRNLAAFEYEGAVMSGTPVIRMAKQSLAGSGLLGFEGILNGTSNFVLTRMEAGLGFAEAVAEAQALGYAEADPSADVEGFDVRLKVVILANELLDAQLTVSDVSCRGISGLTVKDLEQARAEGARWKLIGSAQRLADGSLQASVEPRLLPLAHPLAGIGGAINAVSFNTELLGAVTVSGPGAGRIETAFALLSDIIHIHQSRLAR”, for which the protein production entry is recorded as “failed”.
The result for “MTFEDPSFWAALLTAATTAGAITILVALVRRNQAKGPDRRAREDAEIFLGLSDGLIVLDDGGRVSALNRAAQRMTGQEGEAAVGKSARRLLPGLESVLEGKDRLASSLGLWCRLPATGREEALASTLGALLSETTGPAGTRTVLVLRDISEQIRLTEVDDWLRVIDGHLLAGTSLGDLANDLCERVARAFGLPLLWIGVPRPEGLLVVGKGGSEAARLSAYPEGRGDEGTQGVAGRTLRSGRAQSDDAGEGWAAPTWAPGVPLGRAYCVGLRARGEVVAVLCLRGHGEAPSPALSRALEALGPRLGEAIVYERGQSLMRLQSAAIAAAANAIVITDGEGRVEWVNEAYHLLSGYERDQIIGTLPAVLAGPSAANPTAIEAWPTLRAGQVWRGEIHETHRDGRTYIVDKTITPIVDASGRLSHLVAVDEDVTARKKAEERIRYLSNYDTLTRLPNRVLFRDRLYQAVVQARRGHGGLAVMFIDLDQFSLVNDTLGHAAGDHLLMTIASRINAAAEEADTVARVGGDEFALIQTALTSADSAASLARRLIDVIRTPVDLGGREVVIGANVGIAIYPQDGTDPDNLMKNADMAMYRAVKSGDDSCCFFSNEMNAEAAVRLSLEEDLRRALDSGDQLFLHYQLQFCIESGRPVGAEALARWTHPTLGAIPPTRFIPVAEDSGLILALGDWVLGTALAEYARWRAAGCGRLTIAVNMSAVQFRQKGLVERVTDLLAQHGVPPEDLELELTESMLMQDADQAVAQLTALSQAGIRLSIDDFGTGYSSLGYLKLFRVDKLKVDQSFVRDVTEDGNDAVIARAIINLGHSLGLEVIAEGVETPEQMAYLRREGCDVVQGYLMAYPEPGETVARRLLALDALSAAPAAVVMSRSD” reads “failed”.
In the case of “MTFHKIFFVISLMLVVSLVNAVDYSVVDNSGDSTGGRRFRGEIGGISYGTQTLRSATDFVWRLFQQTNPSDRKSVTKITLFMENGDGVAYNSGNEIHFNVGYLAGVYRS” it was “not failed”.
As for “MTFHWKDLTPWRRIKGVAITILYLLFCIWAGPFWLIFLPLIVDYYFFHIIKWGWYKNIRNKTLRIICSWVADIIYCVVAVTFIFAFLFQNFAIPTSSLEKTLLIGDYLFVSKLSYGPRSPMTPLGVPLTHNTMPLTGGKSFSDKPLLPYKRLKGFGHVKEGDLVVFNFPAGDTVAVKQPNPDYYMWKKLVGREELWSNPDFYGEIVYRPVDRRDHYVKRCVGMPGQELSIRNNQIYIDGKEQRNPRNMQLNYLVRMSREMSVDLIDELGISYDDVRAASSEELKASVGSNLIDSASNQPQIIYHLPLTQGMLDKLQAEPSFVKAVEEPTPIGPLYPLEYETGWTRDNYGPIVIPAKGMTVRLTPLNLALYSRCIRNFEGNKLVQKADGTVLINGRPADSYTFKMDYYFMMGDNRHNSADSRYWGFVPEDHIVGKPVFIWLSLNKDKSLFGGKIRFGRMMRTVNAD”, the protein production result is “failed”.
In the case of “MTFLPTSLKFFSSLSRASGAVWTEATKRKAPHKPLLLLAVLDLVHRGVITTPFIAVSGDLVELNELFNLYWRRIIPLGQTSSIAFPFSRLAREPFWELVPQPGKNITDAVINNTSSVSYLRKYALGAKLDDGLFRVMASGEGREALREALLLSCFSPEASAQLREQSIINREAFDYSRLLEEQAHLPLVKEIVEADNYRPTVRDQAFRKVVTSAYDHRCALCGIRIVTPDGHTVVEAAHIVPWSRSQNDDIRNGMALCRTCHWGFDEGMLGVSDNYTVITSRSIGIDPNFPGLLQTLSGRGIIPPADPDKFPAREYLAEHRRAWRL” it was “failed”; in that of “MTFNALRPVASKVIDPLADFFIRYEVSPDTVSIVSLICAFFAGLSFYYSPAYQELALLAGILVVFNSLFDALDGVIARKSNRATPRGDFLDHVIDRYSDVFIICSIFFAGYVSWQIGVAAIVGVLLTSYLGTQAQALNLGRYYGGIMGRADRLVVIILAAFANSVYPASIAGFPILGWAVILIAVTSHITAIQRIMYIWRRLD”, “failed”; in that of “MTFPLALIAKNTPANSMIMTKLPSVKVKTEGYNPSVNVNELFAYVDLSGSEPGEHDYEVKVDPIPNIKIVEISPRVVTLQLEHHHHHH”, “not failed”.
As to “MTFRKPPPTMKPTRSLSASLFSDPHPAAYLAAFAAVMATAVARLYLPEAFTAPSSFLLFVPAVLISAALGGVGPGVFGTTFAWAAVWWVTRDIPFDLVSGLSAAIFLSVGFGMAVGGGWFHAARRRAAAVNDHLRSILDTVPDAVVVIDRAGIMTSFSPAAQRMFGWSEAEAIGKNVSLLMPEPYQSAHDGYLDRYARTGEKRIIGAGRVVVGRRKDGSTFPMELAVGETRGPTPSFTGFIRDLTERQETETRLQELQNELVHVSRLTAMGEMASTLAHELNQPLSAIANLLTGSRRLMDRGREADQAKVRDAIDRAAAQALRAGEVIHRMRDFARRGASEREVESLSKLIEEASALALIGEKERQVDVRLKLDPKADDVFADRVQIQQVLLNLIRNGIDAMQAQEPRKRALLIRTGLTEEGWSEVSVADTGPGIAPEVLERLFQPFMTTKPQGMGVGLSISRSIIEAHGGRIWAEANPGGGALFRFTLPPAESLAGEKETIDD”, the protein production result is “failed”.
The result for “MTFRNCVAVDLGASSGRVMLARYERECRSLTLREIHRFNNGLHSQNGYVTWDVDSLESAIRLGLNKVCEEGIRIDSIGIDTWGVDFVLLDQQGQRVGLPVAYRDSRTNGLMAQAQQQLGKRDIYQRSGIQFLPFNTLYQLRALTEQQPELIPHIAHALLMPDYFSYRLTGKMNWEYTNATTTQLVNINSDDWDESLLAWSGANKAWFGRPTHPGNVIGHWICPQGNEIPVVAVASHDTASAVIASPLNGSRAAYLSSGTWSLMGFESQTPFTNDTALAANITNEGGAEGRYRVLKNIMGLWLLQRVLQERQINDLPALISATQALPACRFIINPNDBRFINPETMCSEIQAACRETAQPIPESDAELARCIFDSLALLYADVLHELAQLRGEDFSQLHIVGGGCQNTLLNQLCADACGIRVIAGPVEASTLGNIGIQLMTLDELNNVDDFRQVVSTTANLTTFTPNPDSEIAHYVARIHSTRQTKELCA” reads “not failed”.
The result for “MTFRYRGPSPKGDQPKAIAGLVEALRDGERFVTLLGATGTGKTVTMAKVIEALGRPALVLAPNKILAAQLAAEFRELFPENAVEYFISYYDYYQPEAYVPGKDLYIEKDASINPEIERLRHSTTRSLLTRRDVIVVASVSAIYGLGDPREYRARNLVVERGKPYPREVLLERLLELGYQRNDIDLSPGRFRAKGEVLEIFPAYETEPIRVELFGDEVERISQVHPVTGERLRELPGFVLFPATHYLSPEGLEEILKEIEKELWERVRYFEERGEVLYAQRLKERTLYDLEMLRVMGTCPGVENYARYFTGKAPGEPPYTLLDYFPEDFLVFLDESHVTVPQLQGMYRGDYARKKTLVDYGFRLPSALDNRPLRFEEFLERVSQVVFVSATPGPFELAHSGRVVEQIIRPTGLLDPLVRVKPTENQILDLMEGIRERAARGERTLVTVLTVRMAEELTSFLVEHGIRARYLHHELDAFERQALIRDLRLGHYDCLVGINLLREGLDIPEVSLVAILDADKEGFLRSERSLIQTIGRAARNARGEVWLYADRVSEAMQRAIEETNRRRALQEAYNLEHGITPETVRKEVRAVIRPEGYEEAPLEADLSGEDLRERIAELELAMWQAAEALDFERAARLRDEIRALEARLQGVRAPEPVPGGRKRKRR” reads “not failed”.
In the case of “MTFSAPAPTQLDPVVRHLYVHVPFCPSICPYCDFHVLTRQAGLVERYLERLEQEAAELAAAYAVDLDTVYLGGGTPSFLRDHELRALVESVQRHLGWGRAENTLEINPGTVSTERAALWRSLGFDRASVGVQSLDDATLKFLGRRHDARQARDAVSRLIAQDFRVSGDLITAVPGQPLDSDIHGLVELGVGHVSAYTLTIEPGTEFARRGVQVDEDAEREGFERTEELLAGHGFSRYEVSNYARAGQESRHNLSYWQGKTYLGLGPGAAGHYPVPTPGADALTLRRTNPHLHDWLVGQQGETLLVDPHEYVTDALFMGLRLRRGLDLADLTRRSGVDVAGRYGLVIERQVRLGLLEHSGTNLRATAQGWWVLNRIVREFMEVDAAETA” it was “failed”; in that of “MTFSNQLTILRIILVPVFVLLLMQDSAWYRLLGVIVFVTASLTDIYDGYHARKYGEVTRLGAFLDPLADKLLITTAFLFYVWEGYLALWMVLLVAARDIVVTGLRVYAEHIDHPVVTSKEAKYKTFAQNLFAYVIMLFILLKEKSFFGPKMAAFMEVILHSPWLGYAMFAITLFTVWTGVSYLISNRRLIFRNSAGGR”, “not failed”.
On to “MTFTDALGQAHAPVDTTPRIASLVPSITDLLFSLDLGGQLVARTGFCIHPREAVRAIPKVGGTKTVKLDRLRELAPTHVIVNIDENTRETADKLREFVPHVIVTHPCAPEDNLTLYGLLGGIFRREAQAQRLSEALARELAALRGQVFPLRRVLYAIWQDPWMTVARDTYISRMLALIGCQTWPEDPAPVQCGTGRHGDCARPNRPDTRYPTFRWSDEVVRNIDCVLLSTEPYSFTEAHADALEKQIGKPVYLVDGEMVSWYGSRAIEGVRYLGRLAQALT”, for which the protein production entry was “failed”.
As for “MTFYDREAELDTLSDAVESPGADFVVVYGRRRVGKTELLKEFCANRPHIYFLAAQEAEHRQREKFLDQVADYFDERVPRIDGWDEAFEYLGEQLQREDLVVVIDEFPYLVAENDSLPSYVQGFVDQELDGTDSMIVLCGSSVSTMESEILGHESPLYGRRTAQLDVTPFSFQQAREVISYDIQDAIRSYAVTGGTPMYLTLFDYTQSLAANIQSHVLSPSAVLYNEPEFLLRTELRNPARYMSILEAVALGHTTPNEISGATGIDSGPLSKYLQTLRRLRLIERDVPVMASGKKSKRSRYRVADEFLRFWFRYVEPNRSSIEEAPEIVYDGTIEPDLPTHVATTFEDVCQEAVWEGIRRGTFDPYSEVGRWWYGEEEIDIVGLAPNDDRVLLAECKWTTDPVGEDLVESLRAKAEHVRWGPPDRDEQFALFSKSGFVDGLEAQLDDSWSLFTVADIDDLLTPS”, the protein production result was “failed”.
